± gives the uncertainty stated by the source.
Assay: protein stability index of a GFP-peptide fusion (yeast GPS) (PSI 1-4); higher = more stable; sorted into four equal gates, so the index is relative within each strain
How it was run: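 Plasmids in a pooled yeast library fused tiled 17-residue yeast protein peptides downstream of GFP and also expressed Cherry. Mid-log cultures grown without leucine were sorted into four equal gates by GFP/Cherry fluorescence ratio. Each gate's plasmids were PCR-amplified and Illumina-sequenced, and reads were matched to strains by barcodes. The protein stability index is derived by multiplying each gate's read frequency by its gate number and summing the results.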

Sequence	protein stability index (doa10∆)	protein stability index (pdr5∆)	protein stability index (san1∆)	protein stability index (ubr1∆)
LNSMPNNVNEYSYTTIV [YJL039C/NUP192]	2.69 ± 0.085	2.95 ± 0.092	2.75 ± 0.075	2.6 ± 0.058
ISQPKSMSGRISAKDMG [BRR2]	3.1 ± 0.06	3.16 ± 0.055	3.08 ± 0.058	3.15 ± 0.046
ERIINVGVIGPLHSGKT [SNU114]	2.87 ± 0.12	2.57 ± 0.11	–	2.94 ± 0.09
DTSTQAYEEEEENEDND [NUT1]	3.24 ± 0.13	3.5 ± 0.17	3.54 ± 0.18	3.39 ± 0.12
NDNENIVNNDLPTTVVS [MED2]	2.55 ± 0.053	2.8 ± 0.05	2.63 ± 0.042	2.89 ± 0.039
EINWRHASFLCSFITQD [FAS1]	2.1 ± 0.15	2.42 ± 0.12	2.17 ± 0.21	2.14 ± 0.15
KDWELEARFWHLVELLL [YDL116W/NUP84]	2.26 ± 0.1	2.15 ± 0.086	1.92 ± 0.15	2.28 ± 0.062
MIRLLGSESDDSEGSIK [ECM29]	2.67 ± 0.21	–	2.54 ± 0.26	3.4 ± 0.25
LLKPFHVKVNDKKEMTI [SIR3]	3.05 ± 0.18	2.58 ± 0.15	2.21 ± 0.14	2.68 ± 0.14
LLTPDIGAVYSGMGPDY [PRE8]	1.32 ± 0.055	1.72 ± 0.074	1.2 ± 0.1	1.52 ± 0.081
SKVYFNNQSKEKADYED [RPN12]	2.56 ± 0.076	2.64 ± 0.067	2.67 ± 0.098	2.48 ± 0.054
QALDAVRMRLAQLTHSL [MED8]	1.58 ± 0.04	1.58 ± 0.047	1.54 ± 0.065	1.5 ± 0.035
GTQLATLKNRGLPLGIA [YGR119C/NUP57]	2.04 ± 0.067	2.29 ± 0.059	2.57 ± 0.1	2.23 ± 0.031
ETEIKDLTQLLEKERSI [SMC4]	3.34 ± 0.079	3.15 ± 0.048	3.24 ± 0.051	3.25 ± 0.039
GQIITLFSSRRLQAKRL [RMP1]	2.78 ± 0.078	2.76 ± 0.052	2.89 ± 0.051	2.65 ± 0.064
ENKVMLPRCSKEEFRLM [RRI2]	1.8 ± 0.06	2.1 ± 0.076	2.06 ± 0.088	1.7 ± 0.048
SRTATWLKNKFAEENIT [BRR2]	1.69 ± 0.052	1.73 ± 0.037	2.23 ± 0.064	1.94 ± 0.053
RAGKYELVKSYSWLLFE [YJR042W/NUP85]	1.62 ± 0.11	1.78 ± 0.08	1.18 ± 0.14	1.33 ± 0.062
LTMHKIIQLILWSIHPS [SRB8]	1.62 ± 0.047	1.53 ± 0.047	1.61 ± 0.088	1.53 ± 0.044
RMTIRTRGRSATIRETY [RRP43]	2.96 ± 0.057	2.64 ± 0.061	2.67 ± 0.062	2.2 ± 0.049
EKSAYKFFHNGMIYNKL [FAS2]	2.92 ± 0.086	2.81 ± 0.07	2.88 ± 0.071	2.83 ± 0.064
IIDVGTHHTDIIPIVDY [ARP9]	2.41 ± 0.088	2.48 ± 0.056	2.5 ± 0.056	2.59 ± 0.036
YLKAFDKNKLLLLAAQI [SSN2]	1.32 ± 0.061	1.37 ± 0.052	1.36 ± 0.085	1.42 ± 0.045
AMDRAHRIGQKKQVHVY [ISW2]	2.71 ± 0.095	2.75 ± 0.078	2.84 ± 0.085	2.66 ± 0.074
GDHNKLRSTIANLLQIN [YML103C/NUP188]	2.27 ± 0.054	2.35 ± 0.069	1.45 ± 0.13	1.87 ± 0.035
DNNNTTNNDSNNKNNSI [MED2]	2.83 ± 0.049	2.86 ± 0.045	2.96 ± 0.038	2.45 ± 0.034
DRVEDICERIFEQGQAL [RRI2]	2.72 ± 0.12	3.02 ± 0.17	3.18 ± 0.22	–

Sequence	protein stability index (doa10∆)	protein stability index (pdr5∆)	protein stability index (san1∆)	protein stability index (ubr1∆)
IFISSDHEFVLISLIMT [YMR129W/POM152]	1.3 ± 0.13	1.24 ± 0.071	2.01 ± 0.16	1.61 ± 0.29
TAKPAFSFGAKPAEKNN [YJL041W/NSP1]	3.19 ± 0.11	3.35 ± 0.12	3.19 ± 0.11	3.4 ± 0.15
ATVLSRKILKKTFKNPK [RPN5]	2.4 ± 0.044	2.67 ± 0.047	2.55 ± 0.057	2.87 ± 0.037
MSFSSLYKTFFKRNAVF [QCR9]	1.67 ± 0.066	1.33 ± 0.053	1.34 ± 0.091	1.32 ± 0.048
QEGIEAIATTVIAHLTV [RET1]	1.86 ± 0.057	1.93 ± 0.05	1.84 ± 0.059	2.01 ± 0.033
DTKLKAHELQSEDVSRD [YIL149C/MLP2]	2.77 ± 0.058	2.95 ± 0.055	3.03 ± 0.048	2.86 ± 0.047
KIIALQPNEISFKYLSN [RGR1]	2.43 ± 0.12	2.38 ± 0.12	–	2.48 ± 0.098
GYALRDVQARRQFVSNV [RPP1]	–	1.99 ± 0.16	–	–
EFIRCGCLIKNLPRTKA [RMP1]	2.17 ± 0.087	2.82 ± 0.1	2.3 ± 0.11	2.53 ± 0.077
AELEELEEFEFKHGPMS [SMD2]	3.42 ± 0.078	3.41 ± 0.063	3.15 ± 0.058	3.34 ± 0.071
HLLIKIIRQLSELNEGN [SRB8]	2.8 ± 0.097	2.77 ± 0.089	3.18 ± 0.052	1.97 ± 0.053
SCTKCPQIVVPDAQNEL [DIS3]	2.17 ± 0.05	2.42 ± 0.04	2.48 ± 0.057	2.34 ± 0.059
GLNRHYYSLNIDYHKTA [RPN11]	–	2.27 ± 0.29	2.85 ± 0.12	2.61 ± 0.14
VSKADILLSHHRASPAD [POP5]	2.34 ± 0.15	3.26 ± 0.16	3.18 ± 0.054	2.91 ± 0.1
INSGTNSANGSSLNGTN [SSN3]	2.55 ± 0.056	2.75 ± 0.055	2.82 ± 0.05	2.7 ± 0.041
LNEALLQCPMLYVESTG [CSN12]	1.47 ± 0.088	1.26 ± 0.09	1.23 ± 0.15	1.19 ± 0.054
WDGVIPTPAIIKPKPLW [RPO21]	1.88 ± 0.099	2.08 ± 0.092	2.41 ± 0.096	2.06 ± 0.12
ESNNPSHDASRSLASFE [SIR4]	2.97 ± 0.1	3.14 ± 0.12	3.02 ± 0.072	3.02 ± 0.17
LRDSLADKIVDEFPELK [NUT2]	2.76 ± 0.098	2.41 ± 0.069	1.97 ± 0.23	1.44 ± 0.051
AAATFPIAQPATDVEAR [RPL13A]	2.65 ± 0.05	2.38 ± 0.042	2.71 ± 0.066	2.29 ± 0.04
LALKLELLDFLTSNLSN [YJL039C/NUP192]	2.55 ± 0.053	2.26 ± 0.043	2.45 ± 0.049	2.65 ± 0.043
KKQQAALTNELNELKAI [YIL149C/MLP2]	1.42 ± 0.052	1.86 ± 0.07	1.83 ± 0.092	1.55 ± 0.051
SPFRPLEKTSRILNFFD [YMR153W/NUP53]	2.85 ± 0.13	3.22 ± 0.093	2.72 ± 0.087	2.83 ± 0.07
MTTVSGRDAFHLRVRVH [RPL10]	1.33 ± 0.16	–	–	–
FSSKNEWRKSAIANTLL [PRP8]	2.99 ± 0.056	2.79 ± 0.045	2.94 ± 0.053	2.72 ± 0.045
ILHTKESSNEAKKTIQN [SIR4]	2.74 ± 0.056	2.21 ± 0.058	2.73 ± 0.069	2.73 ± 0.054
